Here are results for 1 molecule from patent publication US20190112365A1 (EISAI R AND D MANAGEMENT, published 2019).

Assay [1] concerns the target T1, Tau peptide KDNIKHVSGGGSVQI (human).
T1 construct: Variant peptide of the substitution scan
T1 peptide: KDNIKHVSGGGSVQI
The assay is described as follows: epitope substitution scanning on peptide chip. From the text: FIG. 4 illustrates the results of the murine 7G6 antibody epitope substitution scanning of the peptide sequence […] (SEQ ID NO: 26), corresponding to amino acids 294 to 308 of the human 2N4R Tau protein. Each amino acid position of the peptide was replaced by every naturally occurring amino acid possible, printed onto a glass chip, and probed with the ms7G6 antibody. FIG. 4 illustrates the results for select peptides (SEQ ID NOs 38-78, respectively). While ms7G6 antibody binding allows some variation in the second position (valine) of SEQ ID NO: 79, antibody binding is completely dependent on the proline residue of SEQ ID NO: 79. No binding of antibody 7G6 to […] (SEQ ID NO: 59) was observed. The latter is the sequence present in Tau P301S mutant protein.
The ms7G6 anti-Tau antibody was diluted to a concentration of 1 μg/mL in PBS (pH 7.4) containing 0.05% Tween 20 and 10% Rockland blocking buffer (MB-070). The diluted antibody was incubated on the chip for 16 hours at 4° C. with shaking at 140 rpm. Primary antibody was removed and the chip was washed in PBS (pH 7.4)/0.05% Tween 20. […] Fluorescence images were acquired on the LI-COR Odyssey™ Imaging System and the microarray data was finally analyzed using the PepSlide™ Analyser software.

Assay [2] deals with T2, Human Tau 2N4R, wild type, recombinant full length (human, UniProt P10636 2-758).
T2 construct: Full length 2N4R isoform; monomer in SPR and ELISA; heparin-induced aggregates or seeds in the functional assays; also called Tau441; Tau-441
The assay is described as follows: SPR BIAcore, biotinylated mAb on streptavidin (CAP) chip, single cycle, 1:1 Langmuir. Here is the method:
400 μg of each antibody was diluted to 2 mg/mL and buffer-exchanged into 0.1 M sodium bicarbonate, pH 8.3 using 0.5 mL Zeba™ 40 kDa MWCO desalting columns (Thermo). NHS-PEG4-biotin, prepared immediately before use by dissolving in water to a 20 mM final stock concentration, was added to antibodies at a 5:1 molar ratio (biotin:MAb) and conjugated for 1 hr at room temperature. Excess biotin was removed by two sequential buffer exchanges into 1×DPBS using 0.5 mL Zeba™ 40 kDa MWCO desalting columns. For the BIAcore™ assay, antibodies were diluted to 2 μg/mL in PBS-P+/0.2% BSA (the same preparation used for the running buffer), centrifuged at 14,000 g for 5 min at room temperature, and the supernatant transferred to a new tube. Injection time was subsequently determined for each antibody to achieve a capture level of ˜225 RU.
Biotinylated humanized and mouse mAbs were captured on a streptavidin-coated chip and kₐ, kd, and KD were determined for binding to Tau (Table 11). […] The affinity of 7G6-HCzu8-LCzu6, 7G6-HCzu24-LCzu15, 7G6-HCzu24-LCzu18, 7G6-HCzu25-LCzu15, and 7G6-HCzu25-LCzu18 were all similar.
(In general: SPR reads the build-up and loss of mass on a sensor chip optically.)

The target in assay [3] is T3, HVPGG site of Tau (15-mer array peptides containing HVPGG) (human).
T3 peptide: HVPGG
The assay is described as follows: peptide microarray; HVPGG site of the fourth repeat region against HKPGG (repeat region 3). The procedure: (§1) The diluted antibody was incubated on the chip for 16 hours at 4° C. with shaking at 140 rpm. Primary antibody was removed and the chip was washed in PBS (pH 7.4)/0.05% Tween 20. Wash buffer was removed and goat anti-mouse IgG (H+L) DyLight™680 (1:5000) and an anti-HA tag DyLight™ 800 (1:2000) in the same buffer as the primary antibody was then incubated for 45 minutes at room temperature on the chip. Detection antibody was removed and the chip was washed once again as previously. Fluorescence images were acquired on the LI-COR Odyssey™ Imaging System and the microarray data was finally analyzed using the PepSlide™ Analyser software.

Assay [4] deals with T3, HVPGG site of Tau (15-mer array …). The assay is described as follows: peptide microarray; HVPGG site of the second repeat region against HKPGG (repeat region 3). The procedure:
as §1

The target of assay [5] is T4, P301S mutant human 2N4R Tau, recombinant full length (human, UniProt P10636 2-758).
T4 construct: The equivalent P301S mutant of 2N4R Tau; also called P301S-2N4R Tau; P301S Tau
The assay is described as follows: SPR; KD on P301S-2N4R Tau against KD on wild type 2N4R Tau. Here is the method: Purified antibodies from hybridomas were captured by protein A/G immobilized on a CM5 sensor chip (GE Healthcare). The wild type and P301S Tau proteins were then injected onto the sensor chip at five different concentrations and the affinity (equilibrium dissociation constant, KD) was calculated according to the manufacturer's instruction.

T2 sequence (P10636 other isoform, or with tags, fused parts or gaps limits assumed): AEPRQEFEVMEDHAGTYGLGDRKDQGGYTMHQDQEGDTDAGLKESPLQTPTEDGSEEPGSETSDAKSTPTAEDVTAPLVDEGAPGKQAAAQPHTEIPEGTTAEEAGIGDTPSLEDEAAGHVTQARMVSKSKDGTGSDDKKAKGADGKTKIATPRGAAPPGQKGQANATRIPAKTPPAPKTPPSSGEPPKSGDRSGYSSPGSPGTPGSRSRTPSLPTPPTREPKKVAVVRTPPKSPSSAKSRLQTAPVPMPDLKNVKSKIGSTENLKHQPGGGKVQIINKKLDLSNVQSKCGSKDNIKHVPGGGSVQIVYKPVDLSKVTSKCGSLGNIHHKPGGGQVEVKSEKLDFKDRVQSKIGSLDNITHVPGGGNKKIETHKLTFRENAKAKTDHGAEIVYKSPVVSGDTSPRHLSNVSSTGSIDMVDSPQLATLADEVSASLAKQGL
T4 sequence (P10636 other isoform, or with tags, fused parts or gaps P301S P301S limits assumed): as the sequence (P10636 other isoform, or with tags, fused parts or gaps limits assumed) above, with P300S counted along it

B1: murine 7G6 antibody (antibody, mouse IgG2b, V domains shown)
VH: QVQLLQPGAELVKPGASVIMSCKASGYTFTTYWITWVKQRPGQGLEWIGDIYPGSSICNYNEKFKSKATLTVDTSSSTAYMQLNSLTSEDSAVYYCAREDGYDAWFAYWGQGTLVTVSA
VL: DVLMTQTPLSLPVSLGDQASISCRSSQSILHSNGNTYLEWYLQKPGQSPKLLICKVSNRFSGVPDRFSGSGSGTDFTLKISRVEAEDLGVYYCFQGSHVPFTFGSGTKLEIK
notes: Mouse IgG2b, kappa, purified from hybridoma; also called ms7G6; mouse 7G6
What is called Kd is the equilibrium constant for the complex coming apart. What is called koff is the rate constant with which the complex falls apart. One may read the kon as the second-order rate constant of association. As for B1, in assay [1], the binding result is given as “no binding (tested: 1 µg/mL)”. In assay [2], the Kd came to 0.0636 nM, the koff was determined as 0.000195 s⁻¹ and the kon stood at 3.11e+06 M⁻¹ s⁻¹. Further, in assay [3], the “fold preference in binding (average signal intensities)” value was 33 fold. In addition, in assay [4], the “fold preference in binding (average signal intensities)” value was 38 fold. The Fold difference in assay [5] came to 11 fold.
